According to a protein production outcome set (Wang et al. 2014):

Test: label from the status in PepcDB records

Sequence	protein production
MSPIALNLLQSTPYQVGGSLAANHPSYSQREADRELLAQLRAGKFCYVFNCRQMGKSSLRVRAMHQLQQDGVVCVSIDITSLGTEADPQKWYNGIITQLYLGLPLAGKVALKPWLREREQLSPIQKLREFVETIILQTIGDRQIVIFIDEIDKVLSLPFSLDDFFSYIRFCYNQRADDHEYNRLSFALFGVATPSDLIDNKTQTPFNIGQAIALTGFTLTEALPLSAGLPVDEVSAREILGEILAWTGGQPFLTQKVCELVAEALQKGDLDCQSQTIATTIAQLIEEKIIRHWESNDEPVHFRTIGDRLLKDQARSGQLLGLYQEILHKGAIPADDSVEQTVLRLTGLVVKVKGQLRPYNPIYQAIFNAQWVSKELNKLRPYGTNLQAWINSNYQDSSRLLRGEALREALAWASSKNLSGVDYRYLNASQNQEQEASLAANQILTQANVKAKRMISFGIVVLMMSLGGSAIALSQAYFATLKQQRSQQGTELQRLGTSAQRQFTFDQIPGLVTALEAGNQLHHLVKADETLSQYPATSPLVSLQQILSQIAEKNVLTGHRDGVTSVAISSHKNLIASASRDGTVHLWTPQGEFLREFTGHTGSIYRVDFSPNGKIFATAGQDQTVKIWDLDGNLLQTLKGHQDSVYSVSFSPDGEILASTSRDRTVRLWHWRSGKTLAVLGGHTKSVDDAQFSPDGQTLVSVCRDGQIRLWDLDGNLIRQFGLPEVAFFGVNWHPNGNLLAVAADDGTVRLWTPQGEIKATLSGHDEFVTRVVFTPDGKQLFSSSSNGSVIHWSTSGKMLKKYQGYPEAIFGLALASNGALLAIGAENNLVKVWDMSPKSDLVNLNLPAVLGAVAENAKTNTIALAMENEPLILFNTKNRSRQFLSDASQNLDRLKFSADGQWLLGQRGRQWQLWQLQTKSQLLKTWRTDISRVYDVDLRTTPTSPQWAIAMATGSGEVQLWQGTKNNQTSGNQSQGVPIELNDPIVLALGNSIQRKEPIRSVSLHPTLPQLAAGDEQGNLTLWNFDGTLIRSIVAHGDRLNQLQYSPNGKYLLSAGREGTAKIWSVEGQLLHTLKSDPLPIDQIAISPDSQWIATAASDGMVRLWDQQGNLRGEFTSTSGSLLGLDFNRQGQWLLAVAQNGDLQSWPVTPEKERLRQLVEQGCDWLRDYLATEKQPAQTYSLEFCQPTGN	failed
MSPPARKLDPWTLLLWLGLAAVSLVALYSTTHGPAAEYIGPGVQDNFARQFLWIGVSIAGIAATLLVPVRFLRYAAYPAYAATLVLLVLCLVMGVEVHGTRAWLALGPLRLQVSELAKVGTVLAVAQLLSERHTRAGQDLSFALKAAGLIVAPALLVILQNDLGTALVFFGLVPIMLFWSGLSLSVLLLMVSPAIAGYFALVSTPAALGFAVLFTGGLWAYSGRRSIAALAATFTAGVTALISFVLRKILQPYQVDRLLSFTNPGAEQFRQGVGFHLVQSKAALYSGGIWGTGFMQGPQTQGAYVPEQTTDFIFSVVAEEFGLVGSLVVLGLLAALLLRLIKLGADVKHPFGSIVAAGAVGVYLIHIFINIGMVTGMLPVIGLPLPFLSYGGSAMLANTALLAIVLNTHMRREDLSIYGY	failed
MSPPPAVVTESADGQPEQPPVTAIAEELEKKLQTDEPIVEDVKDDEDDDDDDEEEEDDDAQGVSGSSKQSRSEKKSRKAMLKLGMKPVTGVSRVTIKRTKNVLFFISKPDVFKSPHSETYVIFGEAKIEDLSSQLQTQAAQQFRMPEIGATSQRAEASTATVEAQVEEDEEEIDETGVEARDIDLVMTQAGVSRSKAVKALKSHDGDIVSAIMELTT	failed
MSPSCPMCTKWLDEPEFRIAELEHTRVMLNRDQFFPGYTFVFTREHVTELFHLSPPVRQGVMEEVTAVAAALYDLFQPAKMNYELLGNMVPHMHWHLVPRFATDPLWPRPIWSEPHAETLLAPEEYAGRIALIRDRLGL	failed
MSPSHSINSNSDGNASCSTCSTCFDTTTSTTDEEYDALIKTKTWSLVPKPAGTNIINSIWLYKHKYNADGSLSRYKSRLVANGKSQEHGVDFYETFSPVVKPATIRAVLNFAVERDSSVHQLDVQNAFLHGKLEETVYMYEPPGFVDNKNPGYVCKLNKALYGFKQAPRAWNARFASYVKMMGFKQSKCDASLFVYKQGNDMAYLLLYVDDIMLTASSPSQEKYAKNIINIVEMQNWKPSLTSVDLACKLEESVGPKIQDLTLYRSLVGALQYLTITRPNISYAVQQGLSITKSPSTKLVADSDADWVGCPNTRRSTSGYCVFLRDTLISWSSKRQGSVSRSSAEAEYKAVANAVVATCEVRVIHIPASHQYADIFTKGLTTSLFNRFKSSLGVIQRPTKRLREGDLLFNRKDEIRTFEVVSRYGHGPKLLGRFSGGRIEEFINARTLSAANLRDAEVPTRVAAKLREFHGINIPGDRNVLIWDRMRNWLRQAKSLCTPEDLAEFGLDKIEDEIYLLEHELQDKCKQQEIGFCHNDLQYGNIMIDEDTNAITIIDYEYASYNPVAYDIANHFCEMAANYKVAGEEERRRFIHNYLSSSGEEPKEDDIKQLLKDAEKYTLASHLFWGLWGIISGYVNKIDFDYAEYSRQRFKQYWLRKPELLLFSQMYISNTK	failed
MSPTVLPATQADFPKIVDVLVEAFANDPTFLRWIPQPDPGSAKLRALFELQIEKQYAVAGNIDVARDSEGEIVGVALWDRPDGNHSAKDQAAMLPRLVSIFGIKAAQVAWTDLSSARFHPKFPHWYLYTVATSSSARGTGVGSALLNHGIARAGDEAIYLEATSTRAAQLYNRLGFVPLGYIPSDDDGTPELAMWKPPAMPTV	not failed
MSPVLLFILGVVFVAIGVAVSIALHEVGHLVPAKLFKVRVTKYMIGFGPTLWSKKKGETEYGFKALPLGGYVSMIGMYPPNKEDGAVRPSSTGMFQTLATEARSMAHEEVGPGDENRVFYKLPVWKKIIVMLGGPAMNMLIGLILLAVLLMGFGMATATTTIADVSKCQVAAGETVDPDSADCKLTPAAAAGLQPNDTITSFDGKAVTSWDELTSWIRASAGRDVPITVERNGSTVETTVTPVLSSRPVVGADGRPEQDADGVLKYQEVGFLGIGAQSELVPQPASAVLPMAGENIKQISGVIFNLPARVVGVAKAAFSEEPRDPNGPISVVGVGRVAGEVAAMEQVPMQARIGTLIGLLAGLNFALAIFNLIPLLPLDGGHVAGALYEGARRRVAKLLGKPDPGAFDIAKLLPATYVVAALLMAMGALLIYADIVKPVNIFG	failed
MSQANANFLDNSKVSANKTAESGQLKEFRTPPHNLAIEQAVLAALMTVAESFEQVNDLLKENDFYATRHKYIFRAIEKLAQENSPYDAVLVNDWLLKQNLLDAIGGEEYLMQLMADSPSSFYNLETYASKIKEFSTLRSMIKVSSDILQNAYDTKGRPVSEILDLAETSIFSLAEQHNNNKKDAGPKSISSVTADVISKLDELSKLDGNITGLTTGFLELDNKTYGMQSGDMIIVAARPSMGKTTFAMNLVESVLFNCNLPALVFSMEMPADSIAMRLISSYGKVHQGHLRSGKLDGDEWSKVTGTILQLQEKHLYIDDSSALPPTELRARARRIAKQHGGKLGCIMIDYLQLMKVPGMGDNRVGEIGEISRSLKALAKEMDCPVIALSQLNRSLENRPNKRPVMSDLRESGAIEQDADLIMFIYRDEVYNKESKEAGTAEIIIGKQRNGPIGTVRLAFEGQYTRFSNLSPEYYSQYDDEE	failed
MSQDKQMKAVSPLLQRVINISSIVGGVGSLIFCIWAYQAGILQSKETLSAFIQQAGIWGPPLFIFLQILQTVVPIIPGALTSVAGVFIYGHIIGTIYNYIGIVIGCAIIFYLVRLYGAAFVQSVVSKRTYDKYIDWLDKGNRFDRFFIFMMIWPISPADFLCMLAALTKMSFKRYMTIIILTKPFTLVVYTYGLTYIIDFFWQML	failed
MSQETPYIFDARTADFDQSVIENSFHKPVLVDFWAEWCAPCKALMPMLQQIAESYQGELLLAKVNCDIEQDIVARFGIRSLPTVVLFKDGQPVDGFAGAQPESAVRAMLEPHVQMPPPPAADPLEQAEALFAEGRIGDAEALLKVLLGEDNSNAKALILYARCLAERGELGEAQTVLDAVKSDEHKAALAGAKAQITFLKQAADLPDAAELKARLAKDPQDDEALYQLAIQQLARQQYEAALEALLKLFMRNRSYNEGIAHKTLLQVFDLLGNDHPLVTAYRRKLFAALY	failed
MSQFSTVWVLSDVLSPLPELMGGASSLGQSINVFTFNDEQSIAAFKLGATAVFQLEGKPDDRIMEDYAQSIVETIKSHSDAGLVLLPNTRRGKLFAARLGHRLAAVVSNDAQSLSTQNDTLVAKHMVYGGLAFSDETLTTPYCVVTASTGAFDVASETQATGTAQKVAWIAPSQSIICQSIQ	failed
MSQLEKAQAEYAGFIQEFQSAIISTISEQGIPNGSYAPFVIDDAKNIYIYVSGLAVHTKNIEANPLVNVLFVDDEAKTNQIFARRRLSFDCTATLIERESQKWNQVVDQFQERFGQIIEVLRGLADFRIFQLTPKEGRFVIGFGA	not failed
MSQNLQPPIPLLVPETAPFSEEQRAWLNGFFAGLVSLDGQGVTALSPDQAAALLAGGPAPVAEDDDGGAPWHDQSLPIGERMQLAEGKPLRWKLMAAMAQQDCGQCGYDCRNYSGAIFDGQETRLNLCAPGGKDTARMVKTLTEQIGAAPTLDNAPSLAADAAPVVALPPRGTSRDNPATAKVLSRKRLNKPGSEKETWHVEFELEDCLSYEAGDSFGLFPTNDPALVDAVLHALGAPAEFPIAQSTLRQTLLDSVSLSPAPDMLFQLISYITGGDKRKKARSLASGEDPDGDAATLDVLAALEKFPGLRPDPEAFIEALDPLQPRLYSISSSPKTTPGRLSLTVDCVRYAIGKRQRLGVCSTGLAERVRPGETLRAYVQKAHHFALPSDPNQPIIMIGPGTGIAPFRAFLHERQAIQAPGKNWLFFGHQRSASDFFYEDELKAMKTAGHLTRLTLAWSRDSGEKIYVQDRIREVGRDLWSWLAEGASLYVCGDAKRMAKDVERALVDIVAQHGARSAAEATAFVSELKKQGRYQQDVY	failed
MSQPEPRAGENRALRAFAPDAGLFLLKPWIGGLALLADWGLIAAAFACAALWPHPVIYLLAALLIARSQLALAVLMHESAHGLLLRGQKANDRLGQWLAAGPLFLSLCTYRAGHLKHHLHPMEHDDPVVAVFGLGDYPLPRGKLALRLLADLCGVGYFISALRFARGDYRAIMPRVDKSPRQALAQVLSMLVSNGLLFGLLAWSGHPWLYLGLWLLPAITLLPLLGRVRAIMEHAGLPVAADQSRNARSIVRPSVQTFLFGPHAIHYHIEHHLYVRVPFYHLGGLHRQLATAQLLPEGNLYQGYGGVLRDVSDPDWRSSAR	failed
MSQQAARKLEKADIEAIFARSRFISAMNLEILDIDHAGSRFSVRMPLQDTYERGAPGTKQFHGGALAALIDVVGDFAIGMLVGGGVPTMNLRIDYLRPAVGDYVDGVAVVRKAGKSAAVVDIDILCPAGKLVAIGRGTYVPITG	failed
MSQQFPDWQPQGLENNLLKLVPLAKADFDTLFEVASDPLIWEQHPTKDRYKKEVFQLFFDGALGGNTAFIIIDKATGRIIGSTRYYDYKPEQASIAIGYTFLNRDYWGGRYNRSAKKLLLDYAFHYVDTVYFHIGANNLRSQKAILNIGATKVGEVDFDYYGKKVLHYEYAITKADWLHTLKQQL	failed
MSQRLILFSRYPEPGRSKTRLIPALGPEGAADLQRQLTEWTVFTAHCWQARSPQTEVLIATSGGTSEAWQQWLGAVEVQPQAEGDLGDRLHQAFQDSWQVGCDRTVIIGSDCPQIEPHHLDEAFAVLQQADVVIGPASDGGYWLIGLSQPQPQLFQNIDWGSDRVLVQTLEAAQVADLQVAQLESLSDLDRPEDLNLWQPQPQLSVIITTLNEAANLPQTLALIGDAPVETLVVDGGSQDATVAIAQAWGAKVIHSPAGRGRQFNQGAAAAHGNILLFLHGDTRLPPRFWEHVLQTLQPPQVVAGAFQLQIDSPDWRLRWIERGVRWRSHWLQQPYGDQALFLSRDRWRAIGGFSTGPLLEDYRFVRQLRRQGTIAIASAAVMTSARRWQRRGVLQTTLLNQLILLAHHCGVSDQQLARWYR	failed
